Molecular target: caspase-8 (P10 and P18 subunits reconstituted in their active form)
Test: flow cytometry of giant unilamellar vesicles; CL-containing GUVs in PBS; caspase-8 290 nM bound to the vesicles, fluorescent Bid added at 10 to 100 nM; vesicle fluorescence recorded online

B1: full-length Bid (C15S, C28S), fluorescently labelled (natural protein)
chain: MDCEVNNGSSLRDESITNLLVFGFLQSSSDNSFRRELDALGHELPVLAPQWEGYDELQTDGNRSSHSRLGRIEADSESQEDIIRNIARHLAQVGDSMDRSIPPGLVNGLALQLRNTSRSEEDRNRDLATALEQLLQAYPRDMEKEKTMLVLALLLAKKVASHTPSLLRDVFHTTVNFINQNLRTYVRSLARNGMD
modifications: Bodipy488 or Alexa647 maleimide labelling (legends and results also say Alexa488)
  mean fluorescence of GUVs + caspase-8 + Bid (0 min): 84 a.u.

Source: publication PMC3572128
